According to the nanobody polyreactivity screen of Harvey et al. (2022):

Assay: yeast display, Sf9 membrane polyspecificity reagent, FACS + sequencing; frameworks hold sequencing errors
Summary of the method: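 After 36–48 hours of galactose induction, yeast (Saccharomyces cerevisiae BJ5465) displaying a synthetic nanobody library were stained at 4 °C for 1 hour with 10% biotinylated, detergent-solubilized Sf9 membrane reagent. Streptavidin microbeads enriched the stained cells before FACS sorting into low and high (top ~1%) gates on anti-HA and streptavidin fluorescence. Each clone's polyreactivity label reflects its gate of origin.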

Sequence	polyreactivity (PSR sort gate)
QDQLVESGGGLVQAGGSLRLSCAASGGIFLYYSMGWYRQAPGKERELVAAISRGGGRTYYADSVKGRFTISRDNAKNTVYLHMNSLKPEDTAVYYCAVEYGTGYQWWEYYYWGQGTQVTVSS	high polyreactivity
QVQLVESGGGLVHAGGSLRLSCAASGSIFYHNPMGWYRQAPGKERELVAAISGRGGSTYYADSVKGRFTISRDNAKHTVYLQMNSLKPEDSAVYYCAADARYQNGGLYYWGQGTHVTVSS	high polyreactivity
QVQLVESGGGLVQAGGSLRLSCAATGSTFGYYAMGWYRQSPGKERELVAAISRSGTSTYYADSVKGRFTISRDNAKNTVYLQMISLKPEDTAVYYCIRYGFNSQDYWGQGTQVTVSS	high polyreactivity
QDQLVESGGGIVQAGGSLRLSCAASGFTFHNNVMGWNRQAPGKERELVATISKSGGSTYYADSVKGRFTISRDNAKNTVYLQMNSLKPEDTAVYYCAGRYRDYGRYGYWGQGTQVTVSS	high polyreactivity
QVQLVESGGGLVQAGGSLRLSCAASGRIFNQSGMGWYRQAPGKERELVAAIRSGDSTNYADSVKGRFTISRDNAKNTVYLQMNSLKPEDTAVYYCAKDSDYPDYVSTKGDYDYWGQGTQVTVSS	low polyreactivity
QVQLVESGGGLVQAGGSLRLSCAASGTIFLANAMGWYRQAPEKERELVAAINSGDNSYYADSVKGRFTISRDNAKITVYLQINSLKPEDTAVYYCAAEYTGYFYAYEYWGQGSQVTVSS	high polyreactivity
QVQLVESGGGLVQAGGSLRLSCAASGSTFISNTMGWYRQAPGKERELVAGISSIGGITYYADSVKGRFTISRDNAKNTVYLQMNSLKPEDTAVYYCAKLDVISDDLDYWGQGTQVTVSS	low polyreactivity
QVQLVESGGGLVQAGGSLRLSCAASGSTFYIYAMGWYRQAPGKERELVARISGSGGSTYYADSVKGRFTISRDNAKNTVYLQMNSLKPEDTAVYYCAADDIYKYYQYYAFPYYRYDYWGQGSQVTVSS	low polyreactivity
QVQLVESGGGLVQAGGSLRLRCAASGLTFVDNAMGWYSQAPGKERELVAAITKRGGRTYYADSVKGRFTISRDNAKNTVYLQMNSLKPEDPAVYYCARDSGNDSSRRLDYWGQGTQVTVSS	low polyreactivity
QVQLVESGGGLVQAGGSLRLSCAASGITSSLNAMGWYRQAPGKERELVAAISWRGGSTYYADSVKGRFTISRDNAKNTVNLRMHSLKPEDTAVYYCNVVKRSFRYDYWGQGTQVTVSS	high polyreactivity
QDQRVESGGGLVQAGGSLRLSCAASGRIFGTYTMGWYRQAPGKERELVAAITTGGITNYADSVKGRFTISRDNAKNTVYLQMYSLKPEDTAVYYCNARWDYGAYEYWGQGTQVTVSS	low polyreactivity
QVQLVESGGGLVQAGGSLRLSCAASGSIFWTNAMGWYRQAPGKERELVAAIRVSTGSTYYADSVKGRFTISRDNAKNTVYLQMNSLKPEDTAVYYCAARTYGWGYDYWGQGTQVTVSS	low polyreactivity
QVQLGESGGGLVQAGGSLRLSCAASGGTFTSYAMGWYRQAPGKERELVAGITSSGGNTYYADSVKGRFTISRDNAKNTVYLQMNSLKPEDTAVYYCAAKSGRGRTMDYWGQGTQVTVSS	high polyreactivity
QVQLVESGGGLVQAGGSLRLSCAASGSIFWINAMGGYRQAPGKEREVVADIDVSGGSTYYADSVKGRFTISRDNAKNTVYLQMNSLKPEDTAVYYCAADAWVRTYHYGYWGQGTQVTVSS	low polyreactivity
QVQLVESGGGLVQAGGSLRLSCAASGGTFPYSAMGWYRQAPGKERELVAAISRSGARTYYADSVKGRFTISRDNAKNTVYLQMNSLKPEDTAVYYCATDNTYGYDYWGQGTQVTVSS	high polyreactivity
QVHLVESGGCLVQAGGSLRLSCAASGSIFGDYVMAWYRQAPGKERELVAAITRGGSTYYADSVKGRFTFSRDNAKNTVYLQMNSLKPEDTAVYYCAASYYFVQWGWYYYWGQGTQVTVSS	low polyreactivity
QVQLVESGGGLVQAGGSLRLSCAASGFIFYVYAMGWYRQAPGKERELVAAISADGGITYYADSVKGRFTISRDNAKNTVYLQMNSLKPEDTAVYYCNTLGDQDAYAGFRLDYWVQGTQVTVSS	low polyreactivity
QVQLVESGGGLVQAGGSLRLSCAASGRIFVKNAMGWNRQAPGKESELVAAISASGGSTYYADSVKGRFTISRDNAKNTVDLQMNSLKPEDTAVYYCAARRRAFGSTYNYWGQGTQVTVSS	high polyreactivity
QVQLVESGGGLVQAGGSLRLICAASGSTFEAYAMGWYRQAPGKDSELVAAIRSSGSTSYADSVKGRFTISRDNAKNTVYLQMKSLKPEDTALYYGAARVRGYPRYKRDYWGQGTQVTVSS	high polyreactivity
QVQRVESGGGLVQAGGSLRLSCAASGFTLDYYTMGWYRQAPGKERELVAAISWIGTSTYYADSVKGRFTISRDNAKNTVYIQMNSLKPEDTAVYYCAAVGASVDDYYWGQGSQVTVSS	high polyreactivity
QVQLVESGGGLVQAGGRLRLSCAASGRTFYGFAMGWYRQAPGKERELVASISRDGSTNYADSVKGRFTISRDNAKNTVYLQMNSLKPEDNAVYYCAADIWYYRYPIYYYSYDYWGQGTQVTVSS	low polyreactivity
QVQLVESGGGLVQAGGSLRLSCAASGRIFYFYAMGWYRQAPGKERELVASISYSGGNTYYADSVKGRFTISRDNAKNTVYLQMNSLKPEDNAVYYCNVLPNTGARGYYYWGQGTQVTVSS	low polyreactivity

Sequence	polyreactivity (PSR sort gate)
QVQLVESGGGLVQAGGSLRLSCAASGSIFRYYAMGWYRQAPGKERELVAAISSGTITNYADSVKGRFTISRDNAKNTVYLQMNSLKPEDTAVYYCAADTWYLGYPDYWLDYWGQGTQVTVSS	low polyreactivity
QVQLVESGGGLVQAGGSLRLSCAASGSTFIYYAMGWYRQAPGKEREFVAAISYRGGSTYYADSVKGRFTISRDNAKYTVYLQMNSLKPEDTAVYYCAASYRSWWETYLRGDYWGQGTQVTVSS	high polyreactivity
QVQLVASGGGLVQTGGSLRLSCAASGSTCVWYTIGWYRQAPGKERELVADISRSGGSTYYADSVKGRFTISRDNAKKTIYLQKNSLKAEDTAVYYCARYGYVYNTREPPKVVTFDYSGQGTQVTVSS	high polyreactivity
QVQLVESGGGLGQAGGSLRLSCAASGSTFGRYVMGWYRQAPGKERELVAAISKNSGSTYYAYSVKGRFTISRDNAKNTVYLQMNSLKPEDTAVYYCAADWRSKGYDSLGQGTQVTVSS	high polyreactivity
QVQLVESGVGLVQAGGSLSLICAASGRIFWPNAMGSYRQAPGKERELVAAISRGGNTNYADSVKGRFTISRDNAKNTVYLQMNSLKPEDTAVYYCAARNFALGYRFDYWGQGTQVTVSS	high polyreactivity
QVQLVESGGGLVQAGGSLRLSCAASGFIFRYYAMGWYRQAPGKERVLVARITPRGGRTYYADSVKGRFTISRDNAKNTVYLQMNSLKPEDTAVYYCAAVYPVLHEFGYWGQGTQVTVSS	high polyreactivity
QVQLVESGGGLVQAGGSLRLSCAASGRTLIFYAMGWYRQAPGKERELVAAISGSGGRTYYADSVKGRFTISRDNAKNTVYLQMNSLKPEDTAVYYCNRRHSYPYDYWGQGTQVTVSS	high polyreactivity
LVQLQDSGDGLVQAGGSLRLSCAASGNIFDADIKGWYRQAPGKERELVASIGIGGTTYYADSVKGRFSISRDNEKNTVYLQMNSLKPEDTAVYYCAARYLYYAYSYWGQGTQVTVSS	low polyreactivity
QVQLVESGGGLVQAGGSLRLSCAASGSIFPYYAMGWYRQAPGKERELVAAITYIGGDTYYADSVKGRFTISRDNAKNTVYLQMNSLKPEETEVYYCNRPSSLAWPWTGSFSRYDYWGQGTQVTVSS	low polyreactivity
QVQLVESGGGLVQAGGSLRLSCAASGSIFDYYAMGWYRQAPGKERELVAAISESSDSTYYADSVKGRFTISRDNAKNTVYLQMNSLKPEDTAVYYCAAYRGTLLTAYDYWGQGTQVTVSS	low polyreactivity
QVQLVESGGGLVQAGGSILLSCAASGSIYGTNTMGWYRQAPGKEREFVAVITGSTTSTYYADSVKGLFTISRDNAKNTVYLQMNSLKPEDTAVYYCATDYWWDLFEYDYWGQGTQVTVSS	high polyreactivity
QVQLVESGGGLVQAGGSLRLSCAASGLTFRDNAMGWYRQAPGKERELVATINSGGSTDYADSVKGRFTISRDNAKNTVYLQMNILKPEDTAVYYCAVYREYYDRGWYSIFYWYDYWGQGTQVTVSS	low polyreactivity
QVQLVESGGGLDQAGGSLRLSCAASGRILRGYVMGWYRQAPGKERELVATITGRGGSTYYADSVKGRFTISRDNAKNSVYLQMNSLKPEDPAVYYCNKDGYPYFGRSESWGQGPQVTVSS	low polyreactivity
QVQLVESGGGLVQAGGSLRLSCAASGRTGVNAMGWYRQAPGKERELVAAINNGDSTYYADSVKGRFTISRDNAKKTVYLQMNSLNPEDTAVYYCAAGLDEGDYWQESDYWGQGTQVTVSS	low polyreactivity
QVQLVESGGGLVQAGGSLRLSCAASGGTFSYNAMGWYRQAPGKERELVAAISWSGTRTYYADSVKGRFTISRDNAKNTVYLQMNSLKPEDTAVYYCNKTPPNRGRYDYCGQGTQVTVSS	low polyreactivity
QVQLVESGGGLVQAGGSLRLSCAASGFNFDWYAMGWYRQAPGKERELVAAISASGGRTYYADSVKGRFTISRDNAKNTVYLQMNSLKPEDTAVYYCNKYYLVKGPYDWGQGTQVTVSS	high polyreactivity
QVQLVESGGGLVQAGGSLRLSCAASGSIFYYYAMGWSRQAPGKERELVAAITWRGGRTYYADSVKGRFTISRDNAKNTVYLQMNSLKPEDTAVYYCAADSRYYQYIYIHGYDYWGQGTQVTVSS	high polyreactivity
QVQLVESGGGLVQAGGSLRLSCAASGRIFGSYTMGWYRQAPGKERELVAAISFSGARTRYADSVKGRFTISRDNAKNTVYLQMNSLKPEDTAVYYCAARFTGGKYDYWGQGTQVTVSS	high polyreactivity
QVQLVESGGGLVQPGGSLRLSCAASGLTISYYAMGWYRQAPGKEREFVAAITSRGGDTYYADSVKGRFTISRDNAKNTVYLQMNSLKPEDTAVYYCAVRPRYYGTYRYYYWGQGTQVTVSS	high polyreactivity
QVQLVESGGGLVQAGGSLRLSCAASGIIFGYYAMGWYRQAPAKERELVAAISQSGGDTYYADSVKGRYTISRDLAKNTVYLQMNSVKPEDTAVYYCAASVWYYPMDYWGQGTHVTVSS	low polyreactivity
QVQLVESGGGLVQAGGSLRLSCAASGFTFVYYAMGWYRQAPGKERELVAAISQSGSSTYYADSVKGRFTISRDNPKNTVYLQMNSLKPEDTAVYYCNVYYASRPTYDFGYWGQVTQVTVSS	high polyreactivity
